Percent dimer, percent trimer and stoichiometry N data for one substance are collected here from paper doi:10.1101/742957.

Several values for one entry are separate records, joined by “and”; a condition that tells them apart may be missing. Equal values may be shown once.

This experiment deals with Recombinant human transferrin (human) (UniProt P02787). Put plainly: SEC-MALS. (In general: In gel filtration, larger molecules generally elute earlier.)

The term stoichiometry N denotes the number of molecules, sites or subunits per partner or assembly. “Recombinant human transferrin (from UniProt P02787 20-698) (natural protein)”: the percent dimer stood at 12%; the percent trimer was 2%; the stoichiometry N was 2 and 3.
